Results published in article PMC2116111.

Biological target: 420-kD polypeptide (human alpha 2-macroglobulin receptor) (human (endogenous in placenta)) (UniProt Q07954)
Experiment: ELISA

UniProt Q07954, sequence (Q07954 20-4544): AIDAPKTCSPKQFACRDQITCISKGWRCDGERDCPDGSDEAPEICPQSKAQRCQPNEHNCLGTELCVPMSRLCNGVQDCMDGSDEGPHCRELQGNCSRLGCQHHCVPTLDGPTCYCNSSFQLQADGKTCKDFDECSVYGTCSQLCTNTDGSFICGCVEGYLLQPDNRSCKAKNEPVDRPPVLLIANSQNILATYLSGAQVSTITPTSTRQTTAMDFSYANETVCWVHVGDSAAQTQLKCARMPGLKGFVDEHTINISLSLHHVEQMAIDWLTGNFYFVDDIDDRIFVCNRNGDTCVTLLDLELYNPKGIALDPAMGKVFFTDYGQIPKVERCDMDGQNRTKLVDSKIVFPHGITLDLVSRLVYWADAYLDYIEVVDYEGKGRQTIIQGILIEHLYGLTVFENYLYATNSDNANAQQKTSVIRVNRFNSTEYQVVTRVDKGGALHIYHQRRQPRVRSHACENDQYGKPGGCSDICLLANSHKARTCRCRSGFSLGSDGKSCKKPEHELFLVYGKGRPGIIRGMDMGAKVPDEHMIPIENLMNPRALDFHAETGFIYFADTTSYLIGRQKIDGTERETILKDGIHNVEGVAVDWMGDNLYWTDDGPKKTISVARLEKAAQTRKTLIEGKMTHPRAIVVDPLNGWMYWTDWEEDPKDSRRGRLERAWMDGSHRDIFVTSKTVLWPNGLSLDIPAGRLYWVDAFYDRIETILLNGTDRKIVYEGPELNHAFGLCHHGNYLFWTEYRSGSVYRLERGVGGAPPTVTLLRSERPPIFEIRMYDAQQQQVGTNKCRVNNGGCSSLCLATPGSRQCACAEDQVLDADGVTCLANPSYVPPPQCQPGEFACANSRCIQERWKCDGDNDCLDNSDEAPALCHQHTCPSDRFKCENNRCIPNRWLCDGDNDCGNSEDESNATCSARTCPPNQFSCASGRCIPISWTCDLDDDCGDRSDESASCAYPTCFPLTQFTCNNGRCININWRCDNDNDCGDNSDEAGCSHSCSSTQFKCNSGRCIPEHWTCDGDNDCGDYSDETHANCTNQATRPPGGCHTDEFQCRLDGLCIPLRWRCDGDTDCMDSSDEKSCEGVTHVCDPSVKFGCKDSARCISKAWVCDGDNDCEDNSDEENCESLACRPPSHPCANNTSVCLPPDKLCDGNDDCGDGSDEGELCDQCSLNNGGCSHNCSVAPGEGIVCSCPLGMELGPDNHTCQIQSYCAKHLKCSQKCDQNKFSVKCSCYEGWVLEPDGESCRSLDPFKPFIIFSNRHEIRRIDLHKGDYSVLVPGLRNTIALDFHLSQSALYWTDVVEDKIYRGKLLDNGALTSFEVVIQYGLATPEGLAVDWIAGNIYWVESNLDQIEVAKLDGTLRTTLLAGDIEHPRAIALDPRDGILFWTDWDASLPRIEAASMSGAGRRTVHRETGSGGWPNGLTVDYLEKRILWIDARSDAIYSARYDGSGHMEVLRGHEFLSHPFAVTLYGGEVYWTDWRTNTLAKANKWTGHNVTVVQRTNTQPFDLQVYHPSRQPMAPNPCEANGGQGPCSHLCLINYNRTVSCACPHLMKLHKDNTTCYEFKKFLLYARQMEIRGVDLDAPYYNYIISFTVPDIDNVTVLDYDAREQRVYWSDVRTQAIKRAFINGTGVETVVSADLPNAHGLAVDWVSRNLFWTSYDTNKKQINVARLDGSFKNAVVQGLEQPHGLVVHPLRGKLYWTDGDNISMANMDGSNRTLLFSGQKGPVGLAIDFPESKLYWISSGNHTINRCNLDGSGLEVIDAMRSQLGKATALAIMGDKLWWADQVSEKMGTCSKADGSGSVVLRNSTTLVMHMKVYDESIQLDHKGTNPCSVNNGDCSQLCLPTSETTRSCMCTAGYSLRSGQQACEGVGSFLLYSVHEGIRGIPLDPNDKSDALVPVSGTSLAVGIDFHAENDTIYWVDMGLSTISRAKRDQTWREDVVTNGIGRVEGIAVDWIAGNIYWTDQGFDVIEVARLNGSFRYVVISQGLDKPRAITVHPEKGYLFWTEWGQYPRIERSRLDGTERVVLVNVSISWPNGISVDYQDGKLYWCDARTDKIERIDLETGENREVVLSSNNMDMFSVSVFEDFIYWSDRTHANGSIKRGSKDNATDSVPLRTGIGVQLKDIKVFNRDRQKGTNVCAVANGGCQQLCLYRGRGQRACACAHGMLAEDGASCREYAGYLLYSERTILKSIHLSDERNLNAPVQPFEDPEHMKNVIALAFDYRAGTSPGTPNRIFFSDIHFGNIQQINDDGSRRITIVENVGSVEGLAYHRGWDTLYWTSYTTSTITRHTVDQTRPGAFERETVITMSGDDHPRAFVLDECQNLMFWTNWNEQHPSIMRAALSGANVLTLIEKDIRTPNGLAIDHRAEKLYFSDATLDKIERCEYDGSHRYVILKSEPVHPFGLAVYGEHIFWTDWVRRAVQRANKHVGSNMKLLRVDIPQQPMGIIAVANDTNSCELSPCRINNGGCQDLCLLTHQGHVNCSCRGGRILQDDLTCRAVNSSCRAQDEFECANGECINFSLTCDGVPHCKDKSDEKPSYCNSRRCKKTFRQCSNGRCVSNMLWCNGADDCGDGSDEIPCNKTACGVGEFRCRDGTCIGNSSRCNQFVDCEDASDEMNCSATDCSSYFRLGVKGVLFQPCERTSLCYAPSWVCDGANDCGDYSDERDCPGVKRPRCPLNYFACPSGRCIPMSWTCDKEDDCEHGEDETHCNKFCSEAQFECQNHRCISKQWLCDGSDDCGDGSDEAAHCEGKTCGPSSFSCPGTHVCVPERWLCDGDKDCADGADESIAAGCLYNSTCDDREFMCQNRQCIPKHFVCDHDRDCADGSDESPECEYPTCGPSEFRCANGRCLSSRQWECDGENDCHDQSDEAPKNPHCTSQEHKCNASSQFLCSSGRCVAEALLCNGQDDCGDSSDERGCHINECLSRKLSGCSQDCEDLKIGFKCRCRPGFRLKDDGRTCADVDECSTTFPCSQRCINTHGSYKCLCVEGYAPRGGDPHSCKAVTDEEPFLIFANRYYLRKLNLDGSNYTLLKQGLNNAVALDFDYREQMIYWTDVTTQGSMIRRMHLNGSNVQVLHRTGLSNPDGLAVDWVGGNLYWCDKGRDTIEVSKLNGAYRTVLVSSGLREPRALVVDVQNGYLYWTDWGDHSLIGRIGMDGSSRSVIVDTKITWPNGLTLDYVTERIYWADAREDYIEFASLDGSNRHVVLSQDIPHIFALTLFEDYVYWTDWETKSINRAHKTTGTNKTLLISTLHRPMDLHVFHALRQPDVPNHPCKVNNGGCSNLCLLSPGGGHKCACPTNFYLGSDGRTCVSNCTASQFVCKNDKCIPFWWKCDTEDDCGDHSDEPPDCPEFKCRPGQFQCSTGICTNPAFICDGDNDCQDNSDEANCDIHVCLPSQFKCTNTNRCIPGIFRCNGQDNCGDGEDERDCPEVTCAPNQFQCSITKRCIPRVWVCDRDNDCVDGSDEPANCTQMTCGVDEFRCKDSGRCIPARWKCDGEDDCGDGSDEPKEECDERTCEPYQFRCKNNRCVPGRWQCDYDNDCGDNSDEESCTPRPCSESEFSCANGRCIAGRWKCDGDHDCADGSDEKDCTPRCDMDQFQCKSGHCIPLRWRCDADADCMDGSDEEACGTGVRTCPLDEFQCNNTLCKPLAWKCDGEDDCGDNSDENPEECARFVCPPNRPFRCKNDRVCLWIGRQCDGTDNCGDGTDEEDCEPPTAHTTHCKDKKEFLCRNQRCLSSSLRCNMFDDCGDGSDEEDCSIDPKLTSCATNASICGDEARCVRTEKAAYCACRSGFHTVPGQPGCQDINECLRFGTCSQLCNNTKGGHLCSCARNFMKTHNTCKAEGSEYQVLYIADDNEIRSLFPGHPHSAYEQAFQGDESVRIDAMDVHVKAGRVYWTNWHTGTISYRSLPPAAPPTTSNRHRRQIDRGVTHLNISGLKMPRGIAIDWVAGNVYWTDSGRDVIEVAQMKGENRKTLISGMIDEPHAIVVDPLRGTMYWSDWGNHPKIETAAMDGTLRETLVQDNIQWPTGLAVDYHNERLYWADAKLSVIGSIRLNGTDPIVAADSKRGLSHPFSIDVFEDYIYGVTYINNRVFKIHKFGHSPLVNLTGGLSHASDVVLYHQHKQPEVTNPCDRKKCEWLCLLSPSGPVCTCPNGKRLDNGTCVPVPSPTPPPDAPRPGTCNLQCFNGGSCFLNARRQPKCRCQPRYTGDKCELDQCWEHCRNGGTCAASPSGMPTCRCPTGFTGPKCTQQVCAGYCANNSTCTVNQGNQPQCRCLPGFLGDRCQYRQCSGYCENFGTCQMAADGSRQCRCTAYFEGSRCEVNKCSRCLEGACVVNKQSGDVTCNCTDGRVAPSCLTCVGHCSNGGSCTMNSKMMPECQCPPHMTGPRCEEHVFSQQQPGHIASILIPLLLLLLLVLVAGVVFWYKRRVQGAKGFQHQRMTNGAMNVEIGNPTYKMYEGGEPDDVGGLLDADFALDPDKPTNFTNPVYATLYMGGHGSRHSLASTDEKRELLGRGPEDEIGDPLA

## alpha 2-macroglobulin-trypsin complex (from UniProt P01023 24-1474)
  Kd: 70 nM
